Results on ten substances are retold here after publication PMC5494296.

Values joined by “and” are separate entries in the source; they are usually repeats but may differ in a detail not shown here. Equal values may be shown once.

Common to all, as to assay: SEC; size-exclusion chromatography of the tag-free proteins after cleavage of the MBP fusion proteins with factor Xa; self-association (oligomeric state); SEC data not shown
On the technique in general: SEC sorts molecules by how far they enter the pores of the column.

Assay [1] concerns the target Y138A full-length human phenylalanine hydroxylase (human) (UniProt P00439).
For assay [2], the target named is Y138E full-length human phenylalanine hydroxylase (human) (UniProt P00439).
Assay [3] deals with Y138F full-length human phenylalanine hydroxylase (human) (UniProt P00439).
Assay [4] addresses Y138K full-length human phenylalanine hydroxylase (human) (UniProt P00439).
For assay [5], the target named is double truncated form ΔN102/ΔC24-hPAH (catalytic domain of human phenylalanine hydroxylase) (human) (UniProt P00439).
The target in assay [6] is wild-type human phenylalanine hydroxylase, full-length (wt-hPAH) (human) (UniProt P00439).
Assay [7] addresses ΔN102/ΔC24-Y138A human phenylalanine hydroxylase catalytic domain (human) (UniProt P00439).
The target in assay [8] is ΔN102/ΔC24-Y138E human phenylalanine hydroxylase catalytic domain (human) (UniProt P00439).
Assay [9] has as its target ΔN102/ΔC24-Y138F human phenylalanine hydroxylase catalytic domain (human) (UniProt P00439).
The target in assay [10] is ΔN102/ΔC24-Y138K human phenylalanine hydroxylase catalytic domain (human) (UniProt P00439).

As to “Y138A full-length human phenylalanine hydroxylase (from UniProt P00439 1-452) (enzyme)”, the stoichiometry N – broadly, a count of units in the complex or per binding partner – in assay [1] was 4 and 2. Consider “Y138E full-length human phenylalanine hydroxylase (from UniProt P00439 1-452) (enzyme)”, for which the stoichiometry N in [2] was 4 and 2. Take “Y138F full-length human phenylalanine hydroxylase (from UniProt P00439 1-452) (enzyme)”: the stoichiometry N in [3] was 4 and 2. For “Y138K full-length human phenylalanine hydroxylase (from UniProt P00439 1-452) (enzyme)”, the stoichiometry N in [4] was 2 and 4. Substance “double truncated form ΔN102/ΔC24-hPAH (catalytic domain of human phenylalanine hydroxylase) (from UniProt P00439 103-428) (domain or fragment)” returned a stoichiometry N in assay [5] of 2.

“wild-type human phenylalanine hydroxylase, full-length (wt-hPAH) (from UniProt P00439 1-452) (enzyme)”: in assay [6], the stoichiometry N was 4 and 2. In the case of “ΔN102/ΔC24-Y138A human phenylalanine hydroxylase catalytic domain (from UniProt P00439 103-428) (domain or fragment)”, the stoichiometry N in assay [7] is 2. Turning to “ΔN102/ΔC24-Y138E human phenylalanine hydroxylase catalytic domain (from UniProt P00439 103-428) (domain or fragment)”, in assay [8], the stoichiometry N came to 2. Substance “ΔN102/ΔC24-Y138F human phenylalanine hydroxylase catalytic domain (from UniProt P00439 103-428) (domain or fragment)” displayed a stoichiometry N in assay [9] of 2. Substance “ΔN102/ΔC24-Y138K human phenylalanine hydroxylase catalytic domain (from UniProt P00439 103-428) (domain or fragment)” registered a stoichiometry N in assay [10] of 2.
